Measured values published in patent publication US5831013, “Capsid polypeptides and use to inhibit viral packaging” (The Research Foundation of State University of New York, dated 1998).
Where two headings read alike, the source gives them in different places.

T1: ScVL1 capsid protein Cap, full size (680 amino acids) (ScVL1 virus of Saccharomyces cerevisiae)
T1 chain: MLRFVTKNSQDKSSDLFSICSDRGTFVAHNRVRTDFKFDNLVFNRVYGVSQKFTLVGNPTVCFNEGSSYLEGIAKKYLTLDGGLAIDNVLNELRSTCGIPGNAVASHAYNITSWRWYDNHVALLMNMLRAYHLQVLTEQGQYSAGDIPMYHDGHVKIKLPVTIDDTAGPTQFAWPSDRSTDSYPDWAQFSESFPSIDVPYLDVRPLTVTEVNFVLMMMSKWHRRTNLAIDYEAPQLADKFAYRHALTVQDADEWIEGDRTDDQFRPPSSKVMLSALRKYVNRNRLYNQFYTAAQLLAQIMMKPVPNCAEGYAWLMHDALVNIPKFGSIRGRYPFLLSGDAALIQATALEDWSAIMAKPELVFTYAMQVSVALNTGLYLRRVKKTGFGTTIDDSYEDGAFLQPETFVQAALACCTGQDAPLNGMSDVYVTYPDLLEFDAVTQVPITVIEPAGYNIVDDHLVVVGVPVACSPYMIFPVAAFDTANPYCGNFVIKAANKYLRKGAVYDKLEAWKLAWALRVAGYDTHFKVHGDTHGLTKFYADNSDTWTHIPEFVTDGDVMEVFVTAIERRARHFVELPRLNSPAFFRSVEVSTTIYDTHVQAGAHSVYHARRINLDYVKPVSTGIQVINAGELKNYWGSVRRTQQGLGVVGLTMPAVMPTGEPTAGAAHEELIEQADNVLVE

B1: L1 Cap N-terminal fragment of pGL1d4 (aa 1-435) (other)
chain: MLRFVTKNSQDKSSDLFSICSDRGTFVAHNRVRTDFKFDNLVFNRVYGVSQKFTLVGNPTVCFNEGSSYLEGIAKKYLTLDGGLAIDNVLNELRSTCGIPGNAVASHAYNITSWRWYDNHVALLMNMLRAYHLQVLTEQGQYSAGDIPMYHDGHVKIKLPVTIDDTAGPTQFAWPSDRSTDSYPDWAQFSESFPSIDVPYLDVRPLTVTEVNFVLMMMSKWHRRTNLAIDYEAPQLADKFAYRHALTVQDADEWIEGDRTDDQFRPPSSKVMLSALRKYVNRNRLYNQFYTAAQLLAQIMMKPVPNCAEGYAWLMHDALVNIPKFGSIRGRYPFLLSGDAALIQATALEDWSAIMAKPELVFTYAMQVSVALNTGLYLRRVKKTGFGTTIDDSYEDGAFLQPETFVQAALACCTGQDAPLNGMSDVYVTYPDLLE
B2: L1 Cap N-terminal fragment of pGL1d5 (aa 1-433) (other)
chain: MLRFVTKNSQDKSSDLFSICSDRGTFVAHNRVRTDFKFDNLVFNRVYGVSQKFTLVGNPTVCFNEGSSYLEGIAKKYLTLDGGLAIDNVLNELRSTCGIPGNAVASHAYNITSWRWYDNHVALLMNMLRAYHLQVLTEQGQYSAGDIPMYHDGHVKIKLPVTIDDTAGPTQFAWPSDRSTDSYPDWAQFSESFPSIDVPYLDVRPLTVTEVNFVLMMMSKWHRRTNLAIDYEAPQLADKFAYRHALTVQDADEWIEGDRTDDQFRPPSSKVMLSALRKYVNRNRLYNQFYTAAQLLAQIMMKPVPNCAEGYAWLMHDALVNIPKFGSIRGRYPFLLSGDAALIQATALEDWSAIMAKPELVFTYAMQVSVALNTGLYLRRVKKTGFGTTIDDSYEDGAFLQPETFVQAALACCTGQDAPLNGMSDVYVTYPDL
B3: L1 Cap N-terminal fragment of nonsense mutant pGL1m15 (G501O, aa 1-500) (other)
chain: MLRFVTKNSQDKSSDLFSICSDRGTFVAHNRVRTDFKFDNLVFNRVYGVSQKFTLVGNPTVCFNEGSSYLEGIAKKYLTLDGGLAIDNVLNELRSTCGIPGNAVASHAYNITSWRWYDNHVALLMNMLRAYHLQVLTEQGQYSAGDIPMYHDGHVKIKLPVTIDDTAGPTQFAWPSDRSTDSYPDWAQFSESFPSIDVPYLDVRPLTVTEVNFVLMMMSKWHRRTNLAIDYEAPQLADKFAYRHALTVQDADEWIEGDRTDDQFRPPSSKVMLSALRKYVNRNRLYNQFYTAAQLLAQIMMKPVPNCAEGYAWLMHDALVNIPKFGSIRGRYPFLLSGDAALIQATALEDWSAIMAKPELVFTYAMQVSVALNTGLYLRRVKKTGFGTTIDDSYEDGAFLQPETFVQAALACCTGQDAPLNGMSDVYVTYPDLLEFDAVTQVPITVIEPAGYNIVDDHLVVVGVPVACSPYMIFPVAAFDTANPYCGNFVIKAANKYLRK
B4: L1 Cap N-terminal fragment of nonsense mutant pGL1m14 (Y485O, aa 1-484) (other)
chain: MLRFVTKNSQDKSSDLFSICSDRGTFVAHNRVRTDFKFDNLVFNRVYGVSQKFTLVGNPTVCFNEGSSYLEGIAKKYLTLDGGLAIDNVLNELRSTCGIPGNAVASHAYNITSWRWYDNHVALLMNMLRAYHLQVLTEQGQYSAGDIPMYHDGHVKIKLPVTIDDTAGPTQFAWPSDRSTDSYPDWAQFSESFPSIDVPYLDVRPLTVTEVNFVLMMMSKWHRRTNLAIDYEAPQLADKFAYRHALTVQDADEWIEGDRTDDQFRPPSSKVMLSALRKYVNRNRLYNQFYTAAQLLAQIMMKPVPNCAEGYAWLMHDALVNIPKFGSIRGRYPFLLSGDAALIQATALEDWSAIMAKPELVFTYAMQVSVALNTGLYLRRVKKTGFGTTIDDSYEDGAFLQPETFVQAALACCTGQDAPLNGMSDVYVTYPDLLEFDAVTQVPITVIEPAGYNIVDDHLVVVGVPVACSPYMIFPVAAFDTANP
B5: L1 Cap N-terminal fragment of nonsense mutant pGL1m12 (E435O, aa 1-434) (other)
chain: MLRFVTKNSQDKSSDLFSICSDRGTFVAHNRVRTDFKFDNLVFNRVYGVSQKFTLVGNPTVCFNEGSSYLEGIAKKYLTLDGGLAIDNVLNELRSTCGIPGNAVASHAYNITSWRWYDNHVALLMNMLRAYHLQVLTEQGQYSAGDIPMYHDGHVKIKLPVTIDDTAGPTQFAWPSDRSTDSYPDWAQFSESFPSIDVPYLDVRPLTVTEVNFVLMMMSKWHRRTNLAIDYEAPQLADKFAYRHALTVQDADEWIEGDRTDDQFRPPSSKVMLSALRKYVNRNRLYNQFYTAAQLLAQIMMKPVPNCAEGYAWLMHDALVNIPKFGSIRGRYPFLLSGDAALIQATALEDWSAIMAKPELVFTYAMQVSVALNTGLYLRRVKKTGFGTTIDDSYEDGAFLQPETFVQAALACCTGQDAPLNGMSDVYVTYPDLL
B6: L1 Cap N-terminal fragment of nonsense mutant pGL1m13 (Q10O, aa 1-9) (peptide)
chain: MLRFVTKNS

Columns and labels:
[1] = molecular target: ScVL1 capsid protein Cap, full size (680 amino acids) (ScVL1 virus of Saccharomyces cerevisiae)
[2] = molecular target: ScVLa capsid protein Cap, full size (697 amino acids) (ScVLa virus of Saccharomyces cerevisiae)
[3] = molecular target: T1, ScVL1 capsid protein Cap, full size …; test: cell-based or functional assay

| Molecule | Curing (%) of ScVL1 [3] [%] | other results |
| --- | --- | --- |
| L1 Cap N-terminal fragment of pGL1d2 (aa 1-603) | – | Curing (%) of ScVL1 [1]: 100% |
| La Cap N-terminal fragment of pGLa1d3 (aa 1-443) | – | Curing (%) of ScVLa [2]: 100% |
| B1 | < 5 | – |
| B2 | < 5 | – |
| B3 | < 5 | – |
| B4 | < 5 | – |
| B5 | < 5 | – |
| B6 | < 5 | – |
